Values of other authors as cited in article PMC4449261.

Assays:
IL-4Rα1 (Homo sapiens) = IL-4Rα1 (Homo sapiens) (UniProt P24394)
IL-13Rα1 (Homo sapiens) = IL-13Rα1 (Homo sapiens) (UniProt P78552)
Chain of UniProt P78552 (P78552 22-343): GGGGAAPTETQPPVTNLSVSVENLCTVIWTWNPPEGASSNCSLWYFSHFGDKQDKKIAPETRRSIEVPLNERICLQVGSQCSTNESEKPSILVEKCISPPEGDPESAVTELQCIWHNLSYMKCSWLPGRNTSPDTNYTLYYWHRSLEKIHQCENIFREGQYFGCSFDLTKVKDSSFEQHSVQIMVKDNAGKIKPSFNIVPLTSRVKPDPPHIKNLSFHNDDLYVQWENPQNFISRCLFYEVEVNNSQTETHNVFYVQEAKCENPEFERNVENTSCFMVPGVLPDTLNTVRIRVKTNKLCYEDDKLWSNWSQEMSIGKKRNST

Chain of UniProt P24394 (P24394 26-232): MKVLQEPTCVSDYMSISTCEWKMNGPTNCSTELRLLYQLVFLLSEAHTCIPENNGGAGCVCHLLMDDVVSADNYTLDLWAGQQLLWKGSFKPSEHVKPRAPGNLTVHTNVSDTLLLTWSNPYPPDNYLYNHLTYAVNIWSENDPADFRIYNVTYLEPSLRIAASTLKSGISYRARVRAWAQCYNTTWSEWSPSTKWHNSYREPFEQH

Row | Substance | Kd (IL-4Rα1 (Homo sapiens)) [nM] | Kd (IL-13Rα1 (Homo sapiens)) [nM]
1 | IL-4 (from UniProt P05112) | 0.1 | 
2 | IL-13 (from UniProt P35225) |  | 4
